{
  "source": "paper PMC8003416",
  "about": "“Modulation of Human Phenylalanine Hydroxylase by 3-Hydroxyquinolin-2(1H)-One Derivatives” (Biomolecules, 2021)",
  "biological_target": "the molecule itself",
  "test": "SEC; HiLoad Superdex 200 HR column (1.6 x 60 cm), 20 mM Na-HEPES, 200 mM NaCl, pH 7.0, 0.7 mL/min, 4 °C; preparative isolation of the oligomeric form after affinity purification",
  "data": [
    {"protein": "MBP-FXa-hPAH-RD^1–120 (N-terminal regulatory domain of human phenylalanine hydroxylase fused to maltose binding protein) (domain or fragment, UniProt P00439 1-120, looked up, human phenylalanine hydroxylase, N-terminal regulatory domain, amino acids 1-120; The fusion is about 53 kDa; also called MBP-FXa-hPAH-RD^1–120 fusion protein; dimeric MBP-FXa-hPAH-RD^1–120; source: E. coli TB1, purified (amylose resin, then SEC to isolate dimers); not shown: MBP, N-terminal, kept) MSTAVLENPGLGRKLSDFGQETSYIEDNCNQNGAISLIFSLKEEVGALAKVLRLFEENDVNLTHIESRPSRLKKDEYEFFTHLDKRSLPALTNIIKILRHDIGATVHELSRDKKKDTVPW", "values": [
      {"measurement": "stoichiometry N", "value": 2}
    ]}
  ]
}
